# Assay results as given in publication PMC9482650, “Quantitative fragmentomics allow affinity mapping of interactomes” (Nature Communications, 2022).
# Target: MAGI2_2, Q86UL8
# Test: holdup assay
# Design: key: below the threshold = too weak to quantify, mostly under pKd 3.1 to 4
# Conditions: plain residues with an end cap or a label only (N-terminal biotin on a linker: ado-ado)
# Sequence of MAGI2_2, Q86UL8 (Q86UL8 410-522): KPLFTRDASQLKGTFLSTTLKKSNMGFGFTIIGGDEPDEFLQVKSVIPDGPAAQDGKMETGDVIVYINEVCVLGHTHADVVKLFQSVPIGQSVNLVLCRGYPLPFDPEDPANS
row,pKd,Binder
1,below the threshold,"EDGESWEYQI [TRPV6, Q9H1D0]"
2,3.65,"AQRARSPSDV [GPR12, P47775]"

# Target: LDB3, O75112
# Test: holdup assay
# Design: key: below the threshold = too weak to quantify, mostly under pKd 3.1 to 4
# Conditions: plain residues with an end cap or a label only (N-terminal biotin on a linker: ado-ado)
# Sequence of LDB3, O75112 (O75112 1-94): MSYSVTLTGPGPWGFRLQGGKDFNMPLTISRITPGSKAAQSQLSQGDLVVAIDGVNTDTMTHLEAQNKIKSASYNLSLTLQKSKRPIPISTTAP
row,pKd,Binder
1,below the threshold,"EDGESWEYQI [TRPV6, Q9H1D0]"
2,below the threshold,"AQRARSPSDV [GPR12, P47775]"

# Target: GORASP2, Q9H8Y8
# Test: holdup assay
# Design: key: below the threshold = too weak to quantify, mostly under pKd 3.1 to 4
# Conditions: plain residues with an end cap or a label only (N-terminal biotin on a linker: ado-ado)
row,pKd,Binder
1,4.22,"EDGESWEYQI [TRPV6, Q9H1D0]"
2,below the threshold,"AQRARSPSDV [GPR12, P47775]"

# Target: AHNAK1, Q09666
# Test: holdup assay
# Design: key: below the threshold = too weak to quantify, mostly under pKd 3.1 to 4
# Conditions: plain residues with an end cap or a label only (N-terminal biotin on a linker: ado-ado)
# Sequence of AHNAK1, Q09666 (Q09666 4-100): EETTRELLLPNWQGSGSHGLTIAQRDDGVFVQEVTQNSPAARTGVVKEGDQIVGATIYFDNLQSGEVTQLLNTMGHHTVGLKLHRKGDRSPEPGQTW
row,pKd,Binder
1,below the threshold,"EDGESWEYQI [TRPV6, Q9H1D0]"
2,below the threshold,"AQRARSPSDV [GPR12, P47775]"

# Target: T1, PCLO, Q9Y6V0
# T1 sequence (Q9Y6V0 4491-4600, limits assumed, looked up): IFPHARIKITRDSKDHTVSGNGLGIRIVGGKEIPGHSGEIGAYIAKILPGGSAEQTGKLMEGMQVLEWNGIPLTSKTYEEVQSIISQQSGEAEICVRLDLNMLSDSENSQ
# Test: holdup assay
# Design: key: below the threshold = too weak to quantify, mostly under pKd 3.1 to 4
# Conditions: plain residues with an end cap or a label only (N-terminal biotin on a linker: ado-ado)
row,pKd,Binder
1,below the threshold,"EDGESWEYQI [TRPV6, Q9H1D0]"
2,below the threshold,"AQRARSPSDV [GPR12, P47775]"

# Target: Inadl_1, Q8NI35
# Test: holdup assay
# Design: key: below the threshold = too weak to quantify, mostly under pKd 3.1 to 4
# Conditions: plain residues with an end cap or a label only (N-terminal biotin on a linker: ado-ado)
# Sequence of Inadl_1, Q8NI35 (Q8NI35 113-229): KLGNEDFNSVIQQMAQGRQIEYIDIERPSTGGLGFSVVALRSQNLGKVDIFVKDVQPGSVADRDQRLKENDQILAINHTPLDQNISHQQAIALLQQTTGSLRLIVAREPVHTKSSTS
row,pKd,Binder
1,4.41,"EDGESWEYQI [TRPV6, Q9H1D0]"
2,below the threshold,"AQRARSPSDV [GPR12, P47775]"

# Target: DLG2_2, Q15700
# Test: holdup assay
# Design: key: below the threshold = too weak to quantify, mostly under pKd 3.1 to 4
# Conditions: plain residues with an end cap or a label only (N-terminal biotin on a linker: ado-ado)
row,pKd,Binder
1,below the threshold,"EDGESWEYQI [TRPV6, Q9H1D0]"
2,3.49,"AQRARSPSDV [GPR12, P47775]"

# Target: T2, APBA1_1, Q02410
# T2 sequence (Q02410 651-752, limits assumed, looked up): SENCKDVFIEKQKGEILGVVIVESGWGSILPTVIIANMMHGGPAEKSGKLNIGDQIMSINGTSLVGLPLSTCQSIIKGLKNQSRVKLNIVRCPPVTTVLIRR
# Test: holdup assay
# Design: key: below the threshold = too weak to quantify, mostly under pKd 3.1 to 4
# Conditions: plain residues with an end cap or a label only (N-terminal biotin on a linker: ado-ado)
row,pKd,Binder
1,below the threshold,"EDGESWEYQI [TRPV6, Q9H1D0]"
2,below the threshold,"AQRARSPSDV [GPR12, P47775]"

# Target: T3, TIAM2, Q8IVF5
# T3 sequence (Q8IVF5 885-986, limits assumed, looked up): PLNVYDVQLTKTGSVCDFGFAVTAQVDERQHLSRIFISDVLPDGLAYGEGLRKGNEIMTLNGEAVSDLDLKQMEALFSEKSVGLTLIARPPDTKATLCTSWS
# Test: holdup assay
# Design: key: below the threshold = too weak to quantify, mostly under pKd 3.1 to 4
# Conditions: plain residues with an end cap or a label only (N-terminal biotin on a linker: ado-ado)
row,pKd,Binder
1,3.95,"EDGESWEYQI [TRPV6, Q9H1D0]"
2,4.05,"AQRARSPSDV [GPR12, P47775]"

# Target: SCRIB_3, Q14160
# Test: holdup assay
# Design: key: below the threshold = too weak to quantify, mostly under pKd 3.1 to 4
# Conditions: plain residues with an end cap or a label only (N-terminal biotin on a linker: ado-ado)
# Sequence of SCRIB_3, Q14160 (Q14160 999-1103): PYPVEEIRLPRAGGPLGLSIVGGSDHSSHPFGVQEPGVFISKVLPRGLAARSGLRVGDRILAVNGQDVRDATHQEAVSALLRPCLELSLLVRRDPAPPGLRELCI
row,pKd,Binder
1,4.11,"EDGESWEYQI [TRPV6, Q9H1D0]"
2,below the threshold,"AQRARSPSDV [GPR12, P47775]"

# Target: GRID2IP_1, A4D2P6
# Test: holdup assay
# Design: key: below the threshold = too weak to quantify, mostly under pKd 3.1 to 4
# Conditions: plain residues with an end cap or a label only (N-terminal biotin on a linker: ado-ado)
# Sequence of GRID2IP_1, A4D2P6 (A4D2P6 1-87): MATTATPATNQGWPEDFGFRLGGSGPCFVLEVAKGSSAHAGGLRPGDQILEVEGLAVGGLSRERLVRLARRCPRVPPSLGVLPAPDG
row,pKd,Binder
1,below the threshold,"EDGESWEYQI [TRPV6, Q9H1D0]"
2,below the threshold,"AQRARSPSDV [GPR12, P47775]"

# Target: TJP1_3, Q07157
# Test: holdup assay
# Design: key: below the threshold = too weak to quantify, mostly under pKd 3.1 to 4
# Conditions: plain residues with an end cap or a label only (N-terminal biotin on a linker: ado-ado)
# Sequence of TJP1_3, Q07157 (Q07157 416-512): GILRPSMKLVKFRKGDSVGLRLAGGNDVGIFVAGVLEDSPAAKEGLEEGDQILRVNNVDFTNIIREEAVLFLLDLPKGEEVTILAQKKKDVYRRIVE
row,pKd,Binder
1,below the threshold,"EDGESWEYQI [TRPV6, Q9H1D0]"
2,below the threshold,"AQRARSPSDV [GPR12, P47775]"

# Target: T4, NHERF3_1, Q5T2W1
# T4 sequence (Q5T2W1 4-100, limits assumed, looked up): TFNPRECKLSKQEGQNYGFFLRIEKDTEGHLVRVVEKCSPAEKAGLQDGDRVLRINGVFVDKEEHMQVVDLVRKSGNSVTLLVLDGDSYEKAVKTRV
# Test: holdup assay
# Design: key: below the threshold = too weak to quantify, mostly under pKd 3.1 to 4
# Conditions: plain residues with an end cap or a label only (N-terminal biotin on a linker: ado-ado)
row,pKd,Binder
1,below the threshold,"EDGESWEYQI [TRPV6, Q9H1D0]"
2,below the threshold,"AQRARSPSDV [GPR12, P47775]"

# Target: T5, GRIP1_7, Q9Y3R0
# T5 sequence (Q9Y3R0 999-1096, limits assumed, looked up): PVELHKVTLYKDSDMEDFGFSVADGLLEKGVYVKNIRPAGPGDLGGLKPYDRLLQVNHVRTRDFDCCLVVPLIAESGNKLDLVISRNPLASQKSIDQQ
# Test: holdup assay
# Design: key: below the threshold = too weak to quantify, mostly under pKd 3.1 to 4
# Conditions: plain residues with an end cap or a label only (N-terminal biotin on a linker: ado-ado)
row,pKd,Binder
1,below the threshold,"EDGESWEYQI [TRPV6, Q9H1D0]"
2,below the threshold,"AQRARSPSDV [GPR12, P47775]"

# Target: GOPC, Q9HD26
# Test: holdup assay
# Design: key: below the threshold = too weak to quantify, mostly under pKd 3.1 to 4
# Conditions: plain residues with an end cap or a label only (N-terminal biotin on a linker: ado-ado)
row,pKd,Binder
1,below the threshold,"EDGESWEYQI [TRPV6, Q9H1D0]"
2,below the threshold,"AQRARSPSDV [GPR12, P47775]"

# Target: DLG1_3, Q12959
# Test: holdup assay
# Design: key: below the threshold = too weak to quantify, mostly under pKd 3.1 to 4
# Conditions: plain residues with an end cap or a label only (N-terminal biotin on a linker: ado-ado)
row,pKd,Binder
1,below the threshold,"EDGESWEYQI [TRPV6, Q9H1D0]"
2,below the threshold,"AQRARSPSDV [GPR12, P47775]"

# Target: T6, MPDZ_10, O75970
# T6 sequence (O75970 1624-1722, limits assumed, looked up): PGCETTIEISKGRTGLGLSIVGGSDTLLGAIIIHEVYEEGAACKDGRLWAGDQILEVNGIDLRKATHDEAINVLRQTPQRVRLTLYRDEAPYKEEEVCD
# Test: holdup assay
# Design: key: below the threshold = too weak to quantify, mostly under pKd 3.1 to 4
# Conditions: plain residues with an end cap or a label only (N-terminal biotin on a linker: ado-ado)
row,pKd,Binder
1,below the threshold,"EDGESWEYQI [TRPV6, Q9H1D0]"
2,4.09,"AQRARSPSDV [GPR12, P47775]"

# Target: DLG2_3, Q15700
# Test: holdup assay
# Design: key: below the threshold = too weak to quantify, mostly under pKd 3.1 to 4
# Conditions: plain residues with an end cap or a label only (N-terminal biotin on a linker: ado-ado)
row,pKd,Binder
1,3.48,"EDGESWEYQI [TRPV6, Q9H1D0]"
2,3.67,"AQRARSPSDV [GPR12, P47775]"

# Target: TJP1_2, Q07157
# Test: holdup assay
# Design: key: below the threshold = too weak to quantify, mostly under pKd 3.1 to 4
# Conditions: plain residues with an end cap or a label only (N-terminal biotin on a linker: ado-ado)
# Sequence of TJP1_2, Q07157 (Q07157 181-274): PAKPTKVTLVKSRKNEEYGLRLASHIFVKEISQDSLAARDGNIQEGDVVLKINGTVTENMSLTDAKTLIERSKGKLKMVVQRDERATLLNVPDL
row,pKd,Binder
1,3.56,"EDGESWEYQI [TRPV6, Q9H1D0]"
2,below the threshold,"AQRARSPSDV [GPR12, P47775]"

# Target: T7, GRIP1_3, Q9Y3R0
# T7 sequence (Q9Y3R0 247-346, limits assumed, looked up): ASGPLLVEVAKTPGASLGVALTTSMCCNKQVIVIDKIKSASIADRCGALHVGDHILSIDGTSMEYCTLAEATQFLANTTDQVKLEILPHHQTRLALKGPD
# Test: holdup assay
# Design: key: below the threshold = too weak to quantify, mostly under pKd 3.1 to 4
# Conditions: plain residues with an end cap or a label only (N-terminal biotin on a linker: ado-ado)
row,pKd,Binder
1,below the threshold,"EDGESWEYQI [TRPV6, Q9H1D0]"
2,below the threshold,"AQRARSPSDV [GPR12, P47775]"

# Target: MAGI2_3, Q86UL8
# Test: holdup assay
# Design: key: below the threshold = too weak to quantify, mostly under pKd 3.1 to 4
# Conditions: plain residues with an end cap or a label only (N-terminal biotin on a linker: ado-ado)
# Sequence of MAGI2_3, Q86UL8 (Q86UL8 600-682): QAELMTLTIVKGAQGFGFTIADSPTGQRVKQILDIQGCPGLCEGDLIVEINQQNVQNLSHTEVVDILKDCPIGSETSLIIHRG
row,pKd,Binder
1,below the threshold,"EDGESWEYQI [TRPV6, Q9H1D0]"
2,3.7,"AQRARSPSDV [GPR12, P47775]"

# Target: T8, LIN7A, O14910
# T8 sequence (O14910 103-200, limits assumed, looked up): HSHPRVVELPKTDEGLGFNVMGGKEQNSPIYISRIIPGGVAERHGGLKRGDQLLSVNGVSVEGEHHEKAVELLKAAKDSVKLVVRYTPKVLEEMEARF
# Test: holdup assay
# Design: key: below the threshold = too weak to quantify, mostly under pKd 3.1 to 4
# Conditions: plain residues with an end cap or a label only (N-terminal biotin on a linker: ado-ado)
row,pKd,Binder
1,below the threshold,"EDGESWEYQI [TRPV6, Q9H1D0]"
2,below the threshold,"AQRARSPSDV [GPR12, P47775]"

# Target: GRIP2_7, Q9C0E4
# Test: holdup assay
# Design: key: below the threshold = too weak to quantify, mostly under pKd 3.1 to 4
# Conditions: plain residues with an end cap or a label only (N-terminal biotin on a linker: ado-ado)
# Sequence of GRIP2_7, Q9C0E4 (Q9C0E4 934-1023): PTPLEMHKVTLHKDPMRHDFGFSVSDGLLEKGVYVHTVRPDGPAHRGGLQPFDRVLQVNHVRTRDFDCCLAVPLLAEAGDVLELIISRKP
row,pKd,Binder
1,3.61,"EDGESWEYQI [TRPV6, Q9H1D0]"
2,below the threshold,"AQRARSPSDV [GPR12, P47775]"

# Target: DLG1_1, Q12959
# Test: holdup assay
# Design: key: below the threshold = too weak to quantify, mostly under pKd 3.1 to 4
# Conditions: plain residues with an end cap or a label only (N-terminal biotin on a linker: ado-ado)
row,pKd,Binder
1,below the threshold,"EDGESWEYQI [TRPV6, Q9H1D0]"
2,below the threshold,"AQRARSPSDV [GPR12, P47775]"

# Target: NHERF4_4, Q86UT5
# Test: holdup assay
# Design: key: below the threshold = too weak to quantify, mostly under pKd 3.1 to 4
# Conditions: plain residues with an end cap or a label only (N-terminal biotin on a linker: ado-ado)
# Sequence of NHERF4_4, Q86UT5 (Q86UT5 464-550): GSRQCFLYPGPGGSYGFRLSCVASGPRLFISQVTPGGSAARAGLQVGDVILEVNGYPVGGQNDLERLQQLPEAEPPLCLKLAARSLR
row,pKd,Binder
1,3.94,"EDGESWEYQI [TRPV6, Q9H1D0]"
2,below the threshold,"AQRARSPSDV [GPR12, P47775]"

# Target: T9, GRIP1_2, Q9Y3R0
# T9 sequence (Q9Y3R0 145-248, limits assumed, looked up): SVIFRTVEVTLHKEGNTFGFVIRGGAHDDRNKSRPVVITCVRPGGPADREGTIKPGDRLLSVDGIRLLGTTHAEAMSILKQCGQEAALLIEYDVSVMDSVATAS
# Test: holdup assay
# Design: key: below the threshold = too weak to quantify, mostly under pKd 3.1 to 4
# Conditions: plain residues with an end cap or a label only (N-terminal biotin on a linker: ado-ado)
row,pKd,Binder
1,below the threshold,"EDGESWEYQI [TRPV6, Q9H1D0]"
2,below the threshold,"AQRARSPSDV [GPR12, P47775]"

# Target: GIPC2, Q8TF65
# Test: holdup assay
# Design: key: below the threshold = too weak to quantify, mostly under pKd 3.1 to 4
# Conditions: plain residues with an end cap or a label only (N-terminal biotin on a linker: ado-ado)
# Sequence of GIPC2, Q8TF65 (Q8TF65 112-203): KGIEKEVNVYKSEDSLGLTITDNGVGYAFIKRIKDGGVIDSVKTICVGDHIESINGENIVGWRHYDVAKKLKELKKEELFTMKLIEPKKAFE
row,pKd,Binder
1,below the threshold,"EDGESWEYQI [TRPV6, Q9H1D0]"
2,below the threshold,"AQRARSPSDV [GPR12, P47775]"

# Target: T10, RADIL, Q96JH8
# T10 sequence (Q96JH8 971-1071, limits assumed, looked up): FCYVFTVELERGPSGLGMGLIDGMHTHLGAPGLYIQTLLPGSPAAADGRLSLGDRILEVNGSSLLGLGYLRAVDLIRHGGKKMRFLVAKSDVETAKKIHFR
# Test: holdup assay
# Design: key: below the threshold = too weak to quantify, mostly under pKd 3.1 to 4
# Conditions: plain residues with an end cap or a label only (N-terminal biotin on a linker: ado-ado)
row,pKd,Binder
1,3.69,"EDGESWEYQI [TRPV6, Q9H1D0]"
2,below the threshold,"AQRARSPSDV [GPR12, P47775]"
